# “Also recorded” adds a separate entry of the source.
# Columns and labels:
# nucleosomes = test: Nucleosome in vitro binding and MNase digestion assays
# Method: Gel shift and MNase digestion assays were carried out as described (Falk et al. (2015) Science 348:699-703; Hasson et al. (2013) Nat. Struct. Mol. Biol., 20:687-695; Sekulic et al. (2010) Nature 467:347-351). Briefly, nucleosomes were reconstituted by incubating purified recombinant histones with ‘601’ DNA of either 195 or 147 bp over a series of dialysis. Recombinant protein VII-His was then combined with nucleosomes at various molar ratios, incubated at room temperature for 15 minutes, and analyzed by native gel electrophoresis. Complexes were also digested with MNase (Affymetrix) by addition of 1 unit per μg of DNA for 147 bp nucleosome experiments and 0.1 unit per μg of DNA for 195 bp nucleosome experiments, incubated at 22° C. for varying amounts of time followed by the addition of EGTA and guanidine thiocyanate to stop the reaction. The DNA fragments were then purified using a MinElute PCR purification kit (Qiagen) and analyzed on an Agilent 2100 Bioanalyzer as described (Falk et al. (2015) Science 348:699-703).
# HMGB2 = target: T1, HMGB2 (Homo sapiens, UniProt P26583); test: Release assay of HMGB2 in THP-1 cells; format: cell-based; details: PMA-treated THP-1 cells, LPS plus nigericin
# T1 construct: endogenous in cells; host or cells: THP-1 (PMA-differentiated)
# T1 sequence (P26583 1-209): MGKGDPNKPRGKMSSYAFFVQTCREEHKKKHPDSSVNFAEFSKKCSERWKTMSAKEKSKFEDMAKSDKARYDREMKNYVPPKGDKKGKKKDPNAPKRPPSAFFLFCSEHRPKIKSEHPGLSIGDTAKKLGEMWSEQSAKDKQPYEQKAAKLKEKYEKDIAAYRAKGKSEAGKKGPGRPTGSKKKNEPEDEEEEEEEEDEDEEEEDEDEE
# Method: THP-1 cells were seeded at a density of 2×10^5 cells per well in a 24-well plate, and stimulated into macrophage-like cells by addition of 10 ng/mL PMA for 48 hours. Cells were washed in PBS and transduced with recombinant adenovirus vectors expressing only GFP or protein VII-GFP such that >90% of cells were GFP positive. At 48 hours post transduction, cells were washed and 200 μL of serum free RPMI was added. To stimulate the inflammasome, LPS (Sigma-Aldrich L2880) with a final concentration of 0.5 μg/mL was added to wells and incubated for 2 hours, then nigericin (Sigma-Aldrich N7143) was added with a final concentration of 10 μM for 1 hour. Supernatants were collected and proteins precipitated overnight at 4° C. with a final concentration of 20% trichloroacetic acid (Sigma), washed with acetone, dried, and resuspended in 1×sample buffer with reducing agent (Invitrogen). For ELISA analysis, supernatants were harvested directly and HMGB1 content was detected by the manufacturer's instructions (Chondrex 6010). Cells were also harvested by the addition of 1×sample buffer with reducing agent (Invitrogen) and boiled. Supernatants and lysates were analyzed together by western blot.
# HMGB1 [1] = target: T2, HMGB1 (Homo sapiens, UniProt P09429); test: Co-immunoprecipitation of HMGB1 with protein VII-HA in A549 cells; format: cell-based; set-up: endogenous in cells; host or cells: A549; details: A549 cells induced 4 days
# T2 sequence (P09429 1-215): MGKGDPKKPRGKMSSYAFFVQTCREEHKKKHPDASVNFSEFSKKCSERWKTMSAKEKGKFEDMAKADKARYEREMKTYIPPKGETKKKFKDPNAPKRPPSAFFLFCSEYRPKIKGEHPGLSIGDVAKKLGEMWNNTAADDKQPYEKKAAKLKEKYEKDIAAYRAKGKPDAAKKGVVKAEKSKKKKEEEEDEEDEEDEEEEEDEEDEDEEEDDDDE
# Method: A549 cells were induced to express protein VII with doxycycline for four days as described above. Approximately 4×10^7 cells were harvested and pelleted for each immunoprecipitation reaction. Cell pellets were resuspended in 500 μl of IC wash buffer with protease inhibitors (20 mM HEPES pH 7.9, 110 mM KOAc, 2 mM MgCl2, 150 mM NaCl, 0.1% Tween-20, 0.1% Triton X) and incubated on ice for 10 minutes with intermittent vortexing to disrupt cells. Samples were then incubated on ice for 1 hour with 5 μl of benzonase (Millipore) added to each sample to digest DNA to ˜150 bp, which was confirmed by DNA isolation and agarose gel analysis. Samples were then sonicated in a Diagenode Bioruptre for 30 seconds on and 30 seconds off for five rounds at 4° C. and centrifuged at 14,000 g for 15 minutes at 4° C. Supernatants were then incubated rotating for 1 hour at 4° C. with 30 μl of HA-conjugated magnetic beads (Thermo Scientific) and washed three times for five minutes in IC buffer. Isolated proteins were eluted with 100 μl of 2 mg/ml HA peptide (Thermo Scientific) for 20 minutes rotating at 37° C. and separated on and SDS-PAGE gel. For protein separation by SDS-PAGE the NuPAGE IDE System was used (NuPAGE Novex 4-12% bis-tris 1.0 mm gels, Invitrogen, USA). Uninduced cells were used as a negative control. […]
# HMGB1 [2] = target: T2, HMGB1; test: Fluorescence recovery after photobleaching (FRAP) of HMGB1-mGFP; format: cell-based
# Method: Full-length HMGB1 was cloned from pcDNA3.1 Flag-hHMGB1 (Addgene 31609) into pEGFP-N1 containing a L221K mutation to prevent dimerization of GFP molecules (Zacharias et al. (2002) Science 296:913-916). A549 cells were induced to express protein VII for four days with doxycycline in glass-bottom dishes. Cells were then transfected with the construct that constitutively expresses HMGB1 with a monomeric GFP C-terminal tag. FRAP was carried out using standard methods on a Zeiss LSM confocal microscope. Diffusion coefficients were calculated using the “simFRAP” algorithm (imagej.nih.gov/ij/plugins/simfrap/index.html), a simulation based approach to FRAP analysis (Blumenthal et al. (2015) Sci. Rep., 5:11655).
# [3] = system: HMGB1 full-length and domains; test: In vitro GST pull down of recombinant GST-HMGB1 constructs with protein VII; format: binding
# [4] = target: T3, HMGB1 full-length and domains (Homo sapiens, UniProt P09429); test: as above; format: binding
# T3 construct: recombinant GST constructs encoding full-length HMGB1 or distinct HMGB1 domains
# T3 sequence (P09429 1-215): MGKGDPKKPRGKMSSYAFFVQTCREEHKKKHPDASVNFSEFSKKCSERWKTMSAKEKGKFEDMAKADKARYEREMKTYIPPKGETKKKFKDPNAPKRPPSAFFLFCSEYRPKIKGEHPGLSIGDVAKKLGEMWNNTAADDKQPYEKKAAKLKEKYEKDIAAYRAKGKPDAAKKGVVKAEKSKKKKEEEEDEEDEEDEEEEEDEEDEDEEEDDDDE
molecule,measurement,setting,value
"protein VII: mature protein VII of human adenovirus type 5 (SEQ ID NO:1), expressed in cells, mostly with C-terminal HA tag (protein, C-terminal HA tag; Human adenovirus 5) AKKRSDQHPVRVRGHYRAPWGAHKRGRTGRTTVDDAIDAVVEEARNYTPTPPPVSTVDAAIQTVVRGARRYAKMKRRRRRVARRHRRRPGTAAQRAAAALLNRARRTGRRAAMRAARRLAAGIVTVPPRSRRRAAAAAAAAISAMTQGRRGNVYWVRDSVSGLRVPVRTRPPRN",Protection from MNase digestion,nucleosomes; 147 bp nucleosome core particle,completely blocks digestion; also recorded: protects against MNase digestion
same,Nucleosome mobility on native gel electrophoresis,nucleosomes; 195 bp nucleosomes,changed nucleosome mobility
same,Point at which MNase digestion of nucleosomal DNA pauses,nucleosomes; 195 bp nucleosomes,165 bp
same,HMGB2 in supernatants,HMGB2,reduced levels
same,HMGB1 co-immunoprecipitation with protein VII,HMGB1 [1],confirmed
same,HMGB1 mobility by FRAP,"HMGB1 [2]; A549 cells expressing protein VII, HMGB1-mGFP",decreased HMGB1 diffusion
same,Fluorescence recovery after photo-bleaching of full-length HMGB1 and HMGB1 A box,HMGB1 [2]; upon expression of protein VII,dramatically delayed
same,Binding to HMGB1 acidic tail (C-terminus) in vitro,[3],binds
same,Pull-down by full-length HMGB1 construct in vitro,[4],able to also pull-down protein VII

# Source: patent US20190276499A1, “Protein VII Fragments and Methods of Use Thereof for the Treatment of Inflammatory Disorders” (priority 2016, published 2019)
